In patent US20120316071A1:
Each block holds one substance with its values, some of them ahead of it.

Columns and labels:
[1] = molecular target: rHuman Notch-1/Fc Chimera, CF (R&D Systems Cat#3647-TK) (human) (UniProt P46531); assay: ECL Multispot (MSD) assay, antigen spotted on plate, 10 nM Fab
[2] = molecular target: rHuman CD44/Fc Chimera, CF (R&D Systems Cat#3660-CD) (human) (UniProt P16070); assay: ECL multispot (MSD) binding assay; antigen spotted on plate, Fab in solution, Ru-labelled anti-kappa detection
[3] = molecular target: rHuman ErbB2/Fc Chimera, CF (R&D Systems Cat#1129-ER) (human) (UniProt P04626); assay: as above
[4] = molecular target: rHuman Erythropoietin R/Fc Chimera, CF (R&D Systems Cat#963-ER) (human) (UniProt P19235); assay: as above
[5] = molecular target: rHuman Notch-1/Fc Chimera, CF (R&D Systems Cat#3647-TK) (human) (UniProt P46531); assay: as above
[6] = molecular target: rHuman Erythropoietin R/Fc Chimera, CF (R&D Systems Cat#963-ER) (human) (UniProt P19235); assay: Multispot ECL (MSD) assay, antigen spotted on plate, Fab at 42.112 nM; blank spot 323
[7] = molecular target: rHuman Erythropoietin R/Fc Chimera, CF (R&D Systems Cat#963-ER) (human) (UniProt P19235); assay: Multispot ECL (MSD) assay, antigen spotted on plate, Fab at 421.12 nM; blank spot 639
[8] = molecular target: rHuman Notch-1/Fc Chimera, CF (R&D Systems Cat#3647-TK) (human) (UniProt P46531); assay: ECL (MSD) multispot binding assay, antigen spotted on plate, 20 nM Fab
[9] = molecular target: rHuman IGF-1 sR, (IGF-1 sR), CF (R&D Systems Cat#391-GR) (human) (UniProt P08069); assay: Multispot ECL (MSD), antigen spotted on plate, Fab […]; blank spot 359
[10] = molecular target: rHuman IGF-1 sR, (IGF-1 sR), CF (R&D Systems Cat#391-GR) (human) (UniProt P08069); assay: Multispot ECL (MSD), antigen spotted on plate, Fab […]; blank spot 376
[11] = molecular target: rHuman IGF-1 sR, (IGF-1 sR), CF (R&D Systems Cat#391-GR) (human) (UniProt P08069); assay: Multispot ECL (MSD), antigen spotted on plate, Fab 210 nM; blank spot 833
[12] = molecular target: rHuman IGF-1 sR, (IGF-1 sR), CF (R&D Systems Cat#391-GR) (human) (UniProt P08069); assay: Multispot ECL (MSD), antigen spotted on plate, Fab 52.5 nM; blank spot 467
[13] = molecular target: rHuman Erythropoietin R/Fc Chimera, CF (R&D Systems Cat#963-ER) (human) (UniProt P19235); assay: ECL multispot (MSD) assay, antigen spotted on plate, 10 nM Fab
[14] = molecular target: Recombinant Human DLL4 (R&D Systems Cat#1506-D4/CF) (human) (UniProt Q9NR61); assay: ECL multispot (MSD), antigen spotted, Fab in solution
[15] = molecular target: rHuman CD44/Fc Chimera, CF (R&D Systems Cat#3660-CD) (human) (UniProt P16070); assay: as above
[16] = molecular target: rHuman EGF R/Fc Chimera, CF (R&D Systems Cat#344-ER) (human) (UniProt P00533); assay: as above
[17] = molecular target: rHuman Erythropoietin R/Fc Chimera, CF (R&D Systems Cat#963-ER) (human) (UniProt P19235); assay: as above
[18] = molecular target: rHuman HGF R/c-MET/Fc Chimera, CF (R&D Systems Cat#358-MT/CF) (human) (UniProt P08581); assay: as above
[19] = molecular target: rHuman IGF-1 sR, CF (R&D Systems Cat#391-GR) (human) (UniProt P08069); assay: as above
[20] = molecular target: rHuman Notch-1/Fc Chimera, CF (R&D Systems Cat#3647-TK) (human) (UniProt P46531); assay: as above
[21] = molecular target: rHuman P-Cadherin/Fc Chimera, CF (R&D Systems Cat#861-PC) (human) (UniProt P22223); assay: as above
[22] = molecular target: Recombinant Human DLL4 (R&D Systems Cat#1506-D4/CF) (human) (UniProt Q9NR61); assay: ECL (MSD) multispot binding assay, antigen spotted on plate, Fab in solution
[23] = molecular target: rHuman CD44/Fc Chimera, CF (R&D Systems Cat#3660-CD) (human) (UniProt P16070); assay: ECL multispot (MSD) assay, antigen spotted on plate, 20 nM Fab
[24] = molecular target: rHuman EGF R/Fc Chimera, CF (R&D Systems Cat#344-ER) (human) (UniProt P00533); assay: as above
[25] = molecular target: rHuman IGF-1 sR, CF (R&D Systems Cat#391-GR) (human) (UniProt P08069); assay: as above
[26] = molecular target: rHuman Notch-1/Fc Chimera, CF (R&D Systems Cat#3647-TK) (human) (UniProt P46531); assay: as above
[27] = molecular target: Recombinant Human DLL4 (R&D Systems Cat#1506-D4/CF) (human) (UniProt Q9NR61); assay: Multispot ECL (MSD), antigen spotted on plate, Fab 12 nM; blank spot 573
[28] = molecular target: rHuman ErbB2/Fc Chimera, CF (R&D Systems Cat#1129-ER) (human) (UniProt P04626); assay: as above
[29] = molecular target: rHuman HGF R/c-MET/Fc Chimera, CF (R&D Systems Cat#358-MT/CF) (human) (UniProt P08581); assay: as above
[30] = molecular target: rHuman Notch-1/Fc Chimera, CF (R&D Systems Cat#3647-TK) (human) (UniProt P46531); assay: as above
[31] = molecular target: Recombinant Human DLL4 (R&D Systems Cat#1506-D4/CF) (human) (UniProt Q9NR61); assay: Multispot ECL (MSD), antigen spotted on plate, Fab 1.2 nM; blank spot 227
[32] = molecular target: rHuman ErbB2/Fc Chimera, CF (R&D Systems Cat#1129-ER) (human) (UniProt P04626); assay: as above
[33] = molecular target: rHuman HGF R/c-MET/Fc Chimera, CF (R&D Systems Cat#358-MT/CF) (human) (UniProt P08581); assay: as above
[34] = molecular target: rHuman Notch-1/Fc Chimera, CF (R&D Systems Cat#3647-TK) (human) (UniProt P46531); assay: as above
[35] = molecular target: Recombinant Human DLL4 (R&D Systems Cat#1506-D4/CF) (human) (UniProt Q9NR61); assay: Multispot ECL (MSD), antigen spotted on plate, Fab 0.12 nM; blank spot 264
[36] = molecular target: rHuman ErbB2/Fc Chimera, CF (R&D Systems Cat#1129-ER) (human) (UniProt P04626); assay: as above
[37] = molecular target: rHuman HGF R/c-MET/Fc Chimera, CF (R&D Systems Cat#358-MT/CF) (human) (UniProt P08581); assay: as above
[38] = molecular target: rHuman Notch-1/Fc Chimera, CF (R&D Systems Cat#3647-TK) (human) (UniProt P46531); assay: as above
[39] = molecular target: Recombinant Human DLL4 (R&D Systems Cat#1506-D4/CF) (human) (UniProt Q9NR61); assay: Multispot ECL (MSD), antigen spotted on plate, Fab 120 nM; blank spot 6749
[40] = molecular target: rHuman ErbB2/Fc Chimera, CF (R&D Systems Cat#1129-ER) (human) (UniProt P04626); assay: as above
[41] = molecular target: rHuman HGF R/c-MET/Fc Chimera, CF (R&D Systems Cat#358-MT/CF) (human) (UniProt P08581); assay: as above
[42] = molecular target: rHuman Notch-1/Fc Chimera, CF (R&D Systems Cat#3647-TK) (human) (UniProt P46531); assay: as above

ECL signal/blank ratio [14]: 1.8
ECL signal/blank ratio [15]: 1.4
ECL signal/blank ratio [16]: 1.2
ECL signal/blank ratio [17]: 2.4
ECL signal/blank ratio [18]: 1.4
ECL signal/blank ratio [19]: 1.6
ECL signal/blank ratio [20]: 1.7
ECL signal/blank ratio [21]: 3
Substance: Fab VH3-23_IGHD3-10*01>3_IGHJ6*01 Y112Q & O12_IGKJ1*01

ECL multispot value (looks like signal/blank ratio; not labelled) [22]: 2.7
Substance: Fab VH3-23_IGHD3-10*01>3_IGHJ6*01 Y115G & O12_IGKJ1*01

ECL multispot value (looks like signal/blank ratio; not labelled) [22]: 2.7
Substance: Fab VH3-23_IGHD3-10*01>3_IGHJ6*01 R104A & O12_IGKJ1*01

ECL signal/blank ratio (read-out not given) [23]: 1.7
ECL signal/blank ratio (read-out not given) [24]: 7.1
ECL signal/blank ratio (read-out not given) [25]: 1.4
ECL signal/blank ratio (read-out not given) [26]: 3
Substance: Fab VH3-23_IGHD2-21*01>3_IGHJ6*01 H100E/S108P K65A & V2-13_IGLJ2*01

ECL signal [27]: 2510
ECL signal [28]: 4360
ECL signal [29]: 2700
ECL signal [30]: 2580
ECL signal [31]: 319
ECL signal [32]: 677
ECL signal [33]: 412
ECL signal [34]: 660
ECL signal [35]: 210
ECL signal [36]: 287
ECL signal [37]: 287
ECL signal [38]: 218
ECL signal [39]: 20600
ECL signal [40]: 17300
ECL signal [41]: 15900
ECL signal [42]: 14400
Substance: Fab VH3-23_IGHD3-10*01>3_IGHJ6*01 & O12_IGKJ1*01

Second part, the substance before the results:

Substance: Fab VH1-46_IGHD6-6*01_IGHJ1*01 S102A/S103P/S104F/H111F F29A & L6_IGKJ1*01
ECL signal [1]: 374
ECL signal [2]: 978
ECL signal [3]: 1290
ECL signal [4]: 1060
ECL signal [5]: 6090

Substance: Fab VH3-23_IGHD3-10*01>1′_IGHJ3*01 & O12_IGKJ1*01
ECL signal [6]: 759
ECL signal [7]: 1300

Substance: Fab VH3-23_IGHD2-21*01>3_IGHJ6*01 H100E/S108P/Y113G Y114H & V2-13_IGLJ2*01
ECL multispot value [8]: 3.3

Substance: Fab VH4-31_IGHD2-15*01_IGHJ2*01 & V1-4_IGLJ4*01
ECL signal at 3.3 nM Fab [9]: 743
ECL signal at 13.1 nM Fab [10]: 814
ECL signal at 210 nM Fab [11]: 1430
ECL signal at 52.5 nM Fab [12]: 911

Substance: Fab VH1-46_IGHD6-6*01_IGHJ1*01 S102A/S103P/S104F/H111F & L6_IGKJ1*01
ECL signal [13]: 438

Substance: Fab VH3-23_IGHD2-21*01>3_IGHJ6*01 H100E/S108P/Y113G Y114E & V2-13_IGLJ2*01
ECL multispot value [8]: 3.3
